# From patent US20200024330A1
# Assays:
# Experiment in all cases: cell-based or functional assay
# [1] = molecular target: HIV-1 Env of isolate MGRM-D-028 (subtype D), on pseudovirus (HIV-1)
# [2] = molecular target: HIV-1 Env of isolate 92UG005 (HIV-1)
# [3] = molecular target: HIV-1 Env of isolate 92WR009 (HIV-1)
# [4] = molecular target: HIV-1 Env of isolate 93UG077 (HIV-1)
# [5] = molecular target: HIV-1 Env of isolate 92RW008 (HIV-1)
# [6] = molecular target: HIV-1 Env of isolate MGRM-D-004 (HIV-1)
# [7] = molecular target: HIV-1 Env of isolate 94KE105 (subtype AC), on pseudovirus (HIV-1)
# [8] = molecular target: HIV-1 Env of isolate MGRM-G-025 (HIV-1)
# [9] = molecular target: HIV-1 Env of isolate MGRM-AG-005 (CRF_AG), on pseudovirus (HIV-1)
# [10] = molecular target: HIV-1 Env of isolate JRCSF (HIV-1) (UniProt P20871)
# [11] = molecular target: HIV-1 Env of isolate MGRM-Chronic-B-002 (HIV-1)
# [12] = molecular target: HIV-1 Env of isolate MGRM-D-021 (HIV-1)
# [13] = molecular target: HIV-1 Env of isolate MGRM-D-001 (HIV-1)
# [14] = molecular target: HIV-1 Env of isolate MGRM-F1-020 (subtype F), on pseudovirus (HIV-1)
# [15] = molecular target: HIV-1 Env of isolate MGRM-AG-002 (CRF_AG), on pseudovirus (HIV-1)
# [16] = molecular target: HIV-1 Env of isolate MGRM-AE-001 (HIV-1)
# [17] = molecular target: HIV-1 Env of isolate MGRM-G-019 (subtype G) (HIV-1)
# [18] = molecular target: HIV-1 Env of isolate MGRM-G-011 (subtype G) (HIV-1)
# [19] = molecular target: HIV-1 Env of isolate MGRM-G-024 (subtype G) (HIV-1)
# PGT-141 (4964_G22; 4993_K13) (antibody), sequence (VH): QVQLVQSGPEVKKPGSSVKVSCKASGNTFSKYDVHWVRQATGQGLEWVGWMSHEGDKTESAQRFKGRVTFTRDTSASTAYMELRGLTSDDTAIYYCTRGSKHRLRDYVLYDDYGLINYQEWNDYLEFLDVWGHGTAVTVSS
# PGT-141 (4964_G22; 4993_K13) (antibody), sequence (VL): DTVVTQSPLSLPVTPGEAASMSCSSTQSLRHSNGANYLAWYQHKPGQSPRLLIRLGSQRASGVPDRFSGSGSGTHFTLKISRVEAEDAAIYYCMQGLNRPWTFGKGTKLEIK
# PGT-144 (4970_K22) (antibody), sequence (VH): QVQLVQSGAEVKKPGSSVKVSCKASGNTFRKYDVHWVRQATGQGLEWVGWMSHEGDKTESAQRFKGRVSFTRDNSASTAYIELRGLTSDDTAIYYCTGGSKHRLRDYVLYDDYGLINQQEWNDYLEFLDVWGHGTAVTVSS
# PGT-144 (4970_K22) (antibody), sequence (VL): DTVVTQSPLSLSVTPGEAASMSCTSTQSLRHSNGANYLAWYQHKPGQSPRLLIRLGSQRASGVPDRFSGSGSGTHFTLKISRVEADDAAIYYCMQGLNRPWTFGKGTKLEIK
# 5345_I01 (PGT-137) (antibody), sequence (VH): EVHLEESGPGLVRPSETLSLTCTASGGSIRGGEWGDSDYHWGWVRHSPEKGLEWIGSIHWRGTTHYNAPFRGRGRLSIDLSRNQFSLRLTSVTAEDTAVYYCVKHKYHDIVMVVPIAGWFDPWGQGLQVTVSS
# 5345_I01 (PGT-137) (antibody), sequence (VL): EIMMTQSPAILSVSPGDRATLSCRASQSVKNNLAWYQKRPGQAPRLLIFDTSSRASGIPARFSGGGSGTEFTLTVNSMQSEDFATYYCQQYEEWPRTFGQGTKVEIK
# PGT-143 (4980_N08) (antibody), sequence (VH): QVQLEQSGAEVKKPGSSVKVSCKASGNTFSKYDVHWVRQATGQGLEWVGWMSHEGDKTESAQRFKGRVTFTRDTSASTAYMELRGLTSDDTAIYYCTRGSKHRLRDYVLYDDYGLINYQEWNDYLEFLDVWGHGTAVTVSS
# PGT-143 (4980_N08) (antibody), sequence (VL): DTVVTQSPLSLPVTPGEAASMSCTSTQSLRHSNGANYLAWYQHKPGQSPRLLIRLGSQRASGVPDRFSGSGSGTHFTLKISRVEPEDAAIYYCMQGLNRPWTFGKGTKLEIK
# PGT-142 (4995_E20) (antibody), sequence (VH): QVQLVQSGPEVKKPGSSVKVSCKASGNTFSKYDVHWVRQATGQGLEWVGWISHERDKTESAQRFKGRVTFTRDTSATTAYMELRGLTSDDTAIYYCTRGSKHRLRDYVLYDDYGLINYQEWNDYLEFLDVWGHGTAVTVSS
substance,measurement,setting,value
5345_I01 (PGT-137) (antibody),"IC50, pseudovirus neutralization",[1],> 50 µg/mL
same,IC50,[2],> 50 µg/mL
same,neutralization IC50,[3],> 50 µg/mL
same,neutralization IC50,[4],> 50 µg/mL
same,neutralization IC50,[5],0.148 µg/mL
same,IC50,[6],> 50 µg/mL
same,"IC50, single-round pseudovirus neutralization",[7],18.5 µg/mL
same,"IC50, pseudovirus neutralization",[8],> 50 µg/mL
same,"IC50, single-round pseudovirus neutralization",[9],> 50 µg/mL
same,IC50,[10],> 50 µg/mL
same,IC50,[11],> 50 µg/mL
same,IC50,[12],> 50 µg/mL
same,IC50,[13],> 50 µg/mL
same,"IC50, pseudovirus neutralization",[14],1.93 µg/mL
same,"IC50, single-round pseudovirus neutralization",[15],> 50 µg/mL
PGT-121 (antibody),"IC50 (µg/mL), pseudovirus neutralization",[3],1.74 µg/mL
same,"IC50 (µg/mL), pseudovirus neutralization",[4],0.019 µg/mL
same,"IC50 (µg/mL), pseudovirus neutralization",[5],0.003 µg/mL
same,Primary Neutralization Index (B cell culture well 4838 L06),[10],3.2
same,Primary Neutralization Index (B cell culture well 4873 E03),[10],2.2
same,"IC50 (µg/mL), pseudovirus neutralization",[16],> 50 µg/mL
PGT-122 (antibody),"IC50 (µg/mL), pseudovirus neutralization",[3],42.4 µg/mL
same,"IC50 (µg/mL), pseudovirus neutralization",[4],0.084 µg/mL
same,"IC50 (µg/mL), pseudovirus neutralization",[5],0.003 µg/mL
same,"IC50 (µg/mL), pseudovirus neutralization",[16],> 50 µg/mL
PGT-141 (4964_G22; 4993_K13) (antibody),neutralization IC50,[17],20.3 µg/mL
same,neutralization IC50,[18],0.086 µg/mL
same,neutralization IC50,[19],0.051 µg/mL
PGT-142 (4995_E20) (antibody),neutralization IC50,[17],5.95 µg/mL
same,neutralization IC50,[18],0.046 µg/mL
same,neutralization IC50,[19],0.054 µg/mL
PGT-143 (4980_N08) (antibody),neutralization IC50,[17],4.77 µg/mL
same,neutralization IC50,[18],0.074 µg/mL
same,neutralization IC50,[19],0.048 µg/mL
PGT-144 (4970_K22) (antibody),neutralization IC50,[17],> 50 µg/mL
same,neutralization IC50,[18],1.58 µg/mL
same,neutralization IC50,[19],7.92 µg/mL
PGV04 (antibody),"IC50 (µg/mL), pseudovirus neutralization",[2],0.44 µg/mL
same,neutralization IC50,[17],0.027 µg/mL
same,IC50,[4],0.083 µg/mL
same,neutralization IC50,[18],0.78 µg/mL
same,IC50,[5],0.014 µg/mL
same,"IC50 (µg/mL), pseudovirus neutralization",[6],43.2 µg/mL
same,"IC50 (µg/mL), pseudovirus neutralization",[12],> 50 µg/mL
same,"IC50 (µg/mL), pseudovirus neutralization",[13],> 50 µg/mL
same,neutralization IC50,[19],0.033 µg/mL
same,"IC50 (µg/mL), pseudovirus neutralization",[16],0.063 µg/mL
VRC01 (antibody),neutralization IC50,[17],0.06 µg/mL
same,neutralization IC50,[18],0.065 µg/mL
same,neutralization IC50,[10],0.164 µg/mL
same,IC50,[11],0.117 µg/mL
same,"IC50, pseudovirus neutralization",[12],33.4 µg/mL
same,neutralization IC50,[19],0.025 µg/mL
